Source: a protein production outcome set (Wang et al. 2014)

Assay: label from the status in PepcDB records

MYDWFSEMRKKDPVYYDGNIWQVFSYRYTKEVLNNFSKFSSDLTGYHERLEDLRNGKIRFDIPTRYTMLTSDPPLHDELRSMSADIFSPQKLQTLETFIRETTRSLLDSIDPREDDIVKKLAVPLPIIVISKILGLPIEDKEKFKEWSDLVAFRLGKPGEIFELGKKYLELIGYVKDHLNSGTEVVSRVVNSNLSDIEKLGYIILLLIAGNETTTNLISNSVIDFTRFNLWQRIREENLYLKAIEEALRYSPPVMRTVRKTKERVKLGDQTIEEGEYVRVWIASANRDEEVFHDGEKFIPDRNPNPHLSFGSGIHLCLGAPLARLEARIAIEEFSKRFRHIEILDTEKVPNEVLNGYKRLVVRLKSNE
protein production: not failed

MIKIVTDNFLYEKEKVLALRYMYDSAKKPGITIITVTNKQKYIKNIMDNFRRCLYPKKEFIIILNDTKLQTSLYKNYFSKTKNLKLFKVDSSYSLGECLNLAISKSNYNYIAKMDDDDYYGSHYILDSMNAFNYTDASIIGKATHFIYFEDRTLLNLWCQGNENTYATSVAGATFVMKKSIFNKVKFNSLNNGEDIDLLSQCNNLGIKIYSCSKFNYVYNRHASPDNHSWKISNDLLVKRSIKLCITKSYKRIVHILEHHHHHH
protein production: failed

WRRLVEEAARRDPDDVRLLVHVASDVWNFVDEHCTLVADAYRHVERQLAWRRENRLRLMTTALLDGTTRIADLPDVATALDLPEQGRYAVVSVAVAHPAGHVGTQLLSVPPGMRALWHTGTDVEHGIVHLGEREPKDLVDRVTVPIGARVGISRAVDGLAAVGDARRLAETALRACPESGGTVLLDEHLPAALLVSAPALGTALVNRVLGPLLSLDPSDRDLLLDTVSAWLDNDGSAQRAASRLYCHRNTVLNRLRRFEQLTGRCLTRPADVVDTSLALTARRL
protein production: failed

MLEEYEKKRDFNKTSEPPARGEEKNSDKPVFVVQRHDATNLHYDFRLEMDGVLKSWAVPKEPPKSPGTRRLAIETEDHPLGYADFEGEIPEGQYGAGRVEIWDRGTFELLKRNEKEIIITLHGEELEGDYVLIKTKYGKEDKGWLFFKKKTGLEHHHHHH
protein production: not failed

MIGITQAEAVLTIELQRPERRNALNSQLVEELTQAIRKAGDGSARAIVLTGQGTAFCAGADLSGDAFAADYPDRLIELHKAMDASPMPVVGAINGPAIGAGLQLAMQCDLRVVAPDAFFQFPTSKYGLALDNWSIRRLSSLVGHGRARAMLLSAEKLTAEIALHTGMANRIGTLADAQAWAAEIARLAPLAIQHAKRVLNDDGAIEEAWPAHKELFDKAWGSQDVIEAQVARMEKRPPKFQGA
protein production: not failed

MSLSYVLPTLTYSLAASTLGLLQAIPGAFTGFRHTDSDSARGLLLGIFILTVSALLTLAVSAVFWLASFTLFRVLSRYREYAADRGAVAITGDPAALASALATIDDEMAAAPDHDLRAQDGGLDALYIAPIDETQFKDAPDFVANDVFPQTHPPTEARIERLEAMATEGPT
protein production: failed

MSSERLIYLPLGGAGEIGMNAYVYGYGKPDAERLIVVDMGVAFPDMDGSPGVDLILPDITWLQERRDRIEAVFVTHAHEDHVGAVAHTYEKLGAPVYARAFTANIARRKMAEHGHPEDAVHTVSPWPETVSAGPFKVSFLPISHSIPESSAMVIDTPEGRVIHSGDFKLDETPLVGEAFDPELWAEVSKEGVKALICDSTNVFSQHPGRSEASVGPEITNLVQSAEGMVVATTFASNVARVKTLADAGVRAGRSIVLMGRAMRRMIEAAAETGVLQDFPSVVSPEDARSIPRENLMLLVTGSQGERRAASAQLARGKYQGMEMKEGDLFPFSSKTIPGNEKGVIRIINAFSELGVDVVDDSSGLYHVSGHANRPDLERLSEIVNPQVVIPMHGEHRHLREHVKIAEQNGRTGVLAVNGMMVDLSGNQPKIAEYVETGRTYLDGTVQIGALDGVVRDRIRMALNGHVVVTLIVDEDDEPLGDPWCELKGLPETGRSKASLVDVLEADLGQWLGRADPKTMRDDDKLNEGLRRVVRQTSQDEIGKKPEVSVIVSRLS
protein production: failed

MQKGFLLGLFAYATFSMGDATIKSLGSQISVFEIGFFSILFSGIFIFFSKPREERWREFWRMSRPFAVHGRAISGLFAGIFGIYAFTTIPLAEAYALIFLSPLFVTVLSAVVLKENIGPWRWAAVLAGIVGVILVVRPGFKTLELGHIAAIGVAFLAAMTIVLLRSLAGKEKRTSIMGVLLIYGLTFNGIASIPDFVMPNLHQLLAFAFIGLCTATGQITLLVATRIAPASQIAPSHYSQILWAVAIGMTFFHEYPDAIAALGLAVIAASGLLTMIREKVRLGTVRWNPFFRNRL
protein production: failed

MNWRRYNGRKKLAIIVPIYNVADYLKDCLNSLLKQGVPEKELQIILVDEGSTDNSAQIAQKFVEKYPNFFELHQFENAGLGAARNRGTRLARARFITYVDSDDIVAPNSYEYMLGILERTGSQIITGNVHRFNSKKEWLNNIHARSHLGDFENTSLKEHPELIWDSTSWNKIFCLDFLKENNLYFPEGVLYEDIPMINPAFAAAKSIDIVKRMVYLWRAREGSITESSTDAKAVLDRITITEIALAGLKKYNAPNEILDILYLKSLNLGIISMLRKEKYEYISLERKQELFNSLKEYLEKFPSDTLYQAKFDKLIYFDKVLKAKTQEEFDEITSKYLKNEIGFSGYWNDAGQYVLKSDYSDLEKIVTSDDLEIHPKIEEVVFEDDSLKIQGYFYAKYSDMSAPENVKILGISALSDDGNTINEIVGEKRNFENQRITAKFGYNLNHFVKDGADFNYDYSGYELKIPLNHLEFETTNSLAFVLEVEIDGLKFEVPIKNPISGDKPRPKVGLSNAQVFSVSYKTDWSLVLSLKERSVEELYFSEDGKELRIKGNATKIALKSGKTKLPLKLVGGRVMISQAVQEKIKSFDKSVFHWWQFITYVNGKEKSIYYSGFPKNFQNDSNLEILFSNNGVATLGISYLYPLVEKLQVEENVLKLAFSLKGWMTEATKVQIVADPTLSMIWETEKMNENLYQLSLPLTLDGFSDKEWLNFHVRLTFNDGYQTNELLRWGKKEFALKNEWVSANGIGWFFRSVEQKEHGAFAIKRTADRVFQEKVGNLEYVLQEKYQNWLKEPVLNDYIMMSSFWGRNNHFNDNPEALYRYIEKNYPNMTTIIVLKDAIRSYPEYPNAKIVSYGTADYWYYLARSKYFVNNVNFTEPPRIKREEQIEIQTMHGTPLKTLGFDVLGDWKDSTYNEVLRKNGNWDYLTVPSDWVANYALKAFRVSPQIIKSGYPRNDKLFIDYKM
protein production: failed

MRTVPSLSMSKSRCNMLASTLDRPSPEDSQTLAEVERTITSGVGALCFSRGLERRYQTETRLQRREFLTAMGIGGSLIYNLFLITDWLILRDVFVYVAIGRLCLITPMFIIMLILARRLASRRAMETTAAVATVLCSLMPMVVMTYSESPYQIFYQLGMLLIMVYCTMIQQLPLRHAAAALSCMLIIQLVTTYIADFADFVIWQANALLFVSTVMLLLMASYFLERASRLSYLFALRGRLLQVQLLEFARTDALTRLFNRRYQDEVLTSVWERARKKQANVAIILLDIDHFKSYNDNYGHPQGDVCLKLLCKAIQQSANDGGAVAFRFGGEEVLVLMNADADQATKMAETLKATVAALKLPHPALGEDAHVTISLGVASGIAPLITYDTLISAADNALYAAKHAGRNCVFCQP
protein production: failed

MSSDDAWTAAALPDQSGRRVVVTGANSGLGFEATRAFARAGAHVVMACRSTERGEDARDDIVAELPGASLTVHELDLAALDSVAAFADWFTAEFDSLHVLANNAGVMAIPRSETADGFETQFGVNHLGHVALTAGLLGVLRRTSGETRVVTQSSGAHRRGRIDFEDLQHEAEYGKWEAYSQSKLANLLFAYELDRRLRAASASVTSVACHPGYAATNLQLRGPQAAGSRLRLLAMRAANALVGQSAEQGAWPLLYAATNPSIDGGEYIGPGGVLNMRGHPERQQPSARSRDEDTARRLWTVSADRTGVDFDLPDPA
protein production: failed

MPGFLTADLIRARLAPKDFQRGEEYLKDGRVLKAEWVADDEISGQVAGSAGRRYVQTITLENGLGGLSIVGYCSCPVGFACKHVAAVLLTLAREAEPVVPAWDGSFGARPAQAAVSEPTLDPALAEWIAAVAGFEEVGDPEAYPPAIRHRLIYVVGPQGEGGVPQNGEGRSESRGGGRVSAEIEVTLWSIAVLKDGQMSSVERRILSADALVRSPARPAYLRPSDLALVPRLAALRAPGGGNALLLPQISGSELFAAMVASGRCRWGGPDGPTLYPGAARRAKLVWRSDGEGWQRPAIEPEAMAPEAADPETAQPDIGQPYIAQPAIPEIGALDGEAVEAPTRTDPDDASPAPEDGESGQSPEAEAWDLRALPIEPPAYVDPRSGETGPLDLGLDPRLAARLLSAPPIPPTSVDAVRSRLGALLPAAVPVLPAPIDAQPLSVAPQPILRLLALRAVPRMRGAEMPGETTQALVARPCFAYDSVILPADSSEPAPLRMVGASLMRIERDFAAEGTALRQLDRIGPLRVAEALGRVRVEGGISADRLIAPPFLPRGEERERAVDFLRDGVPDLEEAGWRIEIDPDFPVRPVVADSQDWWGGLNAVGGLEGTVGGWLSVGLGVTIDGERVDLLPALLTLLGEGEDLVEREEDELLYLPLGDGRVLPVAVRRLRPIFHALHAVAVPDERAGPGVRLSGRDLGPLALLEEAGKPLGVVWEGAEGARDIARRLAVVGLREAVAPPKGLVGSLRAYQNEGLDWLQFLRANNLGGILADDMGLGKTLQTLAHILVEKESGRLNDPVLIVAPTSVLGAWRREAAQFAPGLRLVVLHGPERAAGFSQMADQDVVVTSYALVRHDLEVLKAQPWHMLVLDEAQTIRNPQTVQYKAVAALKARHRLFLTGTPLENHLGDLWALMDLLMPGLLGDGATFRRVFRGPIEKRGDGPRRRALAVRVRPFILRRTKDEVATDLPAKTEMIDMVELEGGQRDLYEAVRLAAHKAIREVLAEKGLARGRIHILAALTRLRQVCCDPRLVKGGPRKPPPSAKLDRLEEMLRDLVDEGRRTLVFSAFPSMLALVEERLAAASIPWVSLTGETRDRDTPVTRFQSGAVPVFLISLKAGGTGLTLTAADTVIHYDPWWNPAVEAQATDRAHRIGQDKPVFVHKLVAAGTVEERILALQDRKRGLLDGLFDGEAGPSSLLSEEVIEEILRPLG
protein production: failed

MPTVFIFLTAVYAGLGAFAWHCQQQGRGRDYPWKTELPVLGAALTVHGAALLMPVIQDKIIIMGFGYSGSLIVWMMLFIYFAGSFFYPLRGVQLLLYPCAALMLLSGLVFPGKFSGYEITDFPFMLHIGTSLLAYGLFGIATLLSVLSLLLHRSLHRRNFSKLAGFLPSLLSLEKLMFQAMWAGFILLTYSVVSGTFFAEAVFGKPMTFTHKTVFGILSWLIYGGLLLKHSMTAWRGKKAAVWTIIGFVSLMIAYMGSKFVLEIILKR
protein production: failed

MNKSKIAGIMAKLNAVDNQLVEDVAYVRSRDFPNQRFDHQQGYKGSYGNGQTSYSQNSQFQQPLQNNNSFSFTRNFDLASYQDLTAPIPRWNESSLTTSWHAASMESGYEFMKDDESDEFDVAKAVTKQNRAGSTLISRVARHTLIVLTDTTWVSIHNNTNLRKCRRLTEQNRPRLTEQD
protein production: failed

HKEFAVTMRPTEASERCHLRGSYTLRAGESALELWGGPEPGTQLYDWPYRFLRRFGRDKVTFSFEAGRRCVSGEGNFEFETRQGNEIFLALEEAISAQKN
protein production: not failed

MFNNDRLLVQILLLALFGACLWVMAPFWSALVWGAVLAFASWPLMRLLTRWFKGRESLAALVMCLCWMLLVAAPLVWLGFNLADHVRDATALIKDIQVDGLPDPPQWLAGIPLVGERLVGLWTTIDQQGAAFMTTVKPYLGEVGNWLLARSAQIGGGILELTLSIVFAFFFYRDGPRLAAFVLSLLERLIGDRAQYYLDLVAGTVQRVVNGVIGTAAAQALLALIGFLIAGIPGALVLGILTFLFSLIPMGPPLVWLPATAWLVWQGEYGMAIFLGIWGMFVISGVDNVLKPYLISRGGNLPLVIVLLGVFGGLLAFGFIGLFIGPTLLAVAYSLLTDWVGSERARNPR
protein production: failed

MNQLIFDFAAHDYPSFDKFLGTENAELVYVLRHKHGQFIYVWGEEGAGKSHLLQAWVAQALEAGKNAAYIDAASMPLTDAAFEAEYLAVDQVEKLGNEEQALLFSIFNRFRNSGKGFLLLGSEYTPQQLVIREDLRTRMAYCLVYEVKPLTDQEKIDALASMAAARQVTVDSEIFEYLLKHWRRDMDSLMMMLDTLDNYAVTMGKRITLPLLRQLLKQQETQLEHHHHHH
protein production: not failed
